Results as given in PMC6475807 (Biochemistry, 2018).
Like-named read-outs stand apart in the source and are kept apart here.

Experiments:
SEC [1] = molecular target: the molecule itself; experiment: SEC
SEC [2] = molecular target: the molecule itself; experiment: SEC; remark: listed apart in the source

B1: ^coreAFG3L2^E408Q (enzyme)
chain: not shown
- stoichiometry N (SEC [1]): 6

B2: ^coreAFG3L2^E575Q (enzyme)
chain: not shown
- stoichiometry N (SEC [2]): 6
